Assay results published in IntAct's records for PubMed 31515488.

B1: Isoform 1 of Cyclin-dependent kinase 4 (Homo sapiens), P11802-1 (parent)
chain: MATSRYEPVAEIGVGAYGTVYKARDPHSGHFVALKSVRVPNGGGGGGGLPISTVREVALLRRLEAFEHPNVVRLMDVCATSRTDREIKVTLVFEHVDQDLRTYLDKAPPPGLPAETIKDLMRQFLRGLDFLHANCIVHRDLKPENILVTSGGTVKLADFGLARIYSYQMALTPVVVTLWYRAPEVLLQSTYATPVDMWSVGCIFAEMFRRKPLFCGNSEADQLGKIFDLIGLPPEDDWPRDVSLPRGAFPPRGPRPVQSVVPEMEESGAQLLLEMLTFNPHKRISAFRALQHSYLHKDEGNPE

Variants of: B1
Settings: with ccnd1_human CCND1, P24385
ccnd1_human CCND1, P24385, sequence (P24385 whole entry): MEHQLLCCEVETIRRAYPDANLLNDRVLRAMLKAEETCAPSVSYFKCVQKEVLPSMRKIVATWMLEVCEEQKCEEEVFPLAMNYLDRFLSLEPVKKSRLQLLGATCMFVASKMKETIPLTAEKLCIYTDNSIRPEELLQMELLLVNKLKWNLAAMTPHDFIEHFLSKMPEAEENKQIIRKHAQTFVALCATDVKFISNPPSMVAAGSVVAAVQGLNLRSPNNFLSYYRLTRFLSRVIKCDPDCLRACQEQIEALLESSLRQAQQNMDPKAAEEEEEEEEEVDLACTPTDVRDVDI

Row | Variant | effect of a mutation on the interaction
1 | G43E | with no effect
2 | V174G | with no effect

Other lines, results leading:

Row | effect of a mutation on the interaction | Variant
3 | with no effect | S267P
4 | with no effect | R255C

Variants of: B1
Settings: with ccnd2_human CCND2, P30279
ccnd2_human CCND2, P30279, sequence (P30279 whole entry): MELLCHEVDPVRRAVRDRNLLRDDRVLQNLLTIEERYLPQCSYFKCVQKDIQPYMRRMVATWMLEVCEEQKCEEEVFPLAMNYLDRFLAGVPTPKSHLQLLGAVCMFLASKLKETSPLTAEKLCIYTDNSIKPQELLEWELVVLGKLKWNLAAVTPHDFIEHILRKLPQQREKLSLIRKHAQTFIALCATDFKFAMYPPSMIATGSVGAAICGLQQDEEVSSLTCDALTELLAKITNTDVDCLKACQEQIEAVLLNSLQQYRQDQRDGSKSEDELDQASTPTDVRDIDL

Row | Variant | effect of a mutation on the interaction
5 | G43E | with no effect
6 | V174G | disrupting interaction strength

Second part, the variant after the results:

Row | effect of a mutation on the interaction | Variant
7 | with no effect | S267P
8 | with no effect | R255C

Variants of: B1
Settings: with cdn2c_human CDKN2C

Row | Variant | effect of a mutation on the interaction
9 | G43E | with no effect
10 | V174G | with no effect

Next, values leading:

Row | effect of a mutation on the interaction | Variant
11 | with no effect | S267P
12 | with no effect | R255C

Variants of: B1
Settings: with ccnd3_human CCND3, P30281
ccnd3_human CCND3, P30281, sequence (P30281 whole entry): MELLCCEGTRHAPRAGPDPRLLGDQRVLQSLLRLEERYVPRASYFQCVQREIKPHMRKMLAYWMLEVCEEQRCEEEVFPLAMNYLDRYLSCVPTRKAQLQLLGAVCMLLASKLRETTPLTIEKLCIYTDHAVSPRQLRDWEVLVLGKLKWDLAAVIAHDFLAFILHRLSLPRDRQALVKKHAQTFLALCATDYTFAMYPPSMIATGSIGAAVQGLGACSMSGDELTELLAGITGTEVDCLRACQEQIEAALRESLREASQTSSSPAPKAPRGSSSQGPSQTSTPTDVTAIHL

Row | Variant | effect of a mutation on the interaction
13 | G43E | with no effect
14 | V174G | with no effect

Now from value to variant:

Row | effect of a mutation on the interaction | Variant
15 | with no effect | S267P
16 | with no effect | R255C

Variants of: B1
Settings: with cdn2b_human CDKN2B

Row | effect of a mutation on the interaction | Variant
17 | with no effect | R209C
18 | with no effect | S52N

Variants of: B1
Settings: with ccnd3_human CCND3, P30281
Remark: another data set of the same source

Row | effect of a mutation on the interaction | Variant
19 | with no effect | R209C
20 | with no effect | S52N
21 | with no effect | R255H

Variants of: B1
Settings: with cdn2c_human CDKN2C
Remark: another data set of the same source

Row | effect of a mutation on the interaction | Variant
22 | with no effect | R209C
23 | with no effect | S52N
24 | with no effect | R255H

Variants of: B1
Settings: with ccnd1_human CCND1, P24385
Remark: another data set of the same source

Row | effect of a mutation on the interaction | Variant
25 | with no effect | N41S
26 | with no effect | S52N
27 | with no effect | R255H

Variants of: B1
Settings: with ccnd2_human CCND2, P30279
Remark: another data set of the same source

Row | effect of a mutation on the interaction | Variant
28 | with no effect | R255H
